The source of these data is article PMC6149855, “Improving the Catalytic Property of the Glycoside Hydrolase LXYL-P1–2 by Directed Evolution” (Molecules : A Journal of Synthetic Chemistry and Natural …, 2017).

The data set has as its system [H][C@]12[C@H](OC(=O)c3ccccc3)[C@]3(O)C[C@H](OC(=O)[C@H](O)[C@@H](NC(=O)c4ccccc4)c4ccccc4)C(C)=C([C@@H](O)C(=O)[C@]1(C)[C@@H](O[C@@H]1OC[C@@H](O)[C@H](O)[C@H]1O)C[C@@]1([H])OC[C@@]21OC(C)=O)C3(C)C. As to the kind of experiment: HPLC of 10-deacetyltaxol formation, nonlinear Michaelis–Menten fit. Format: biochemical, Lentinula edodes. Conditions: XDT 0.039–5.0 mM; other conditions as described previously. The source says:
HPLC of 10-deacetyltaxol formation, nonlinear Michaelis–Menten fit on LXYL-P1–2
The Vmax is the top rate of the reaction or transport when substrate is in excess. What is called kcat is the maximal rate divided by the concentration of active sites. Broadly, the kcat/Km is the turnover number divided by the Michaelis constant. In the case of LXYL-P1–2 (Lentinula edodes; T368E), the Km is recorded as 0.16 (±0.01) mmol L^−1, the Vmax is 3.84 µM/min, the kcat was 2.3 ± 0.03 s⁻¹ and the kcat/Km amounted to 14200 ± 810 M⁻¹ s⁻¹.

As for LXYL-P1–2 (Lentinula edodes; S91D), the Km is 0.17 (±0.01) mmol L^−1, the maximum rate (Vmax) worked out at 3.15 µM/min, the kcat is 1.89 ± 0.04 s⁻¹ and the kcat/Km is 11300 ± 390 M⁻¹ s⁻¹.

With LXYL-P1–2 (Lentinula edodes), the Km is recorded as 0.51 (±0.01) mmol L^−1, the Vmax is 8.16 µM/min, the kcat amounted to 4.89 ± 0.1 s⁻¹ and the kcat/Km was found to be 9670 ± 100 M⁻¹ s⁻¹.
